We go through three molecules from patent US20220370565A1 (SHANGHAI INSTITUTE OF BIOLOGICAL PRODCCTS CO., LTD., priority 2019, published 2022).

Data set [1] concerns human gastric cancer NCI-N87. The experiment in a line: subcutaneous transplanted tumors of human gastric cancer NCI-N87 in nude mice. The note with it: D 0, 3, 7, 10, 14, 17; for Mean tumor volume D 0 SEM: baseline at grouping. The data set is classed as in vivo. The procedure:
(§1) The indicators of tumor inhibition experiments in mice were to investigate the effect of drugs on tumor growth, and the specific indicators were T/C % or the rate of tumor growth inhibition TGI (%).
(§2) The diameter of the tumor was measured with a vernier caliper twice a week, and the formula for calculating the tumor volume (V) was: V=½xaxb^2, wherein a and b represented the length and width, respectively.
(§3) T/C(%)=(T−T0)/(C−C0)×100,
(§4) If a tumor was smaller than the initial volume, i.e., T<T0 or C<C0, it was defined as partial regression (PR) of the tumor; if a tumor disappeared completely, it was defined as complete regression (CR) of the tumor.
(§5) At the end of the experiment (e.g., D21), reaching the experimental endpoint, or the tumor volume reached 1,500 mm^3, the animals were sacrificed after CO2 anesthesia, and then the tumors were dissected and photographed.
Nude mice were subcutaneously (SC) inoculated with 6×10^6 human gastric cancer NCI-N87 cells. After the tumor grew to 100-150 mm^3, the animals were grouped according to tumor volume (D0). Mice were administered subcutaneously (SC) or intravenously (IV), twice a week (BIW); the administration volume was 10 mL/kg; the solvent group was administered with the same volume of “solvent” (normal saline); specific dosage and administration regimen were shown in Table 1. The tumor volumes were measured twice a week, the mice were weighed, and the data were recorded.
(§6) Two-tailed Student's t-test was used to compare tumor volumes between the two groups, and P<0.05 was defined as a statistically significant difference.

Data set [2] relates to human liver cancer Huh-7. The data set can be described thus: subcutaneous transplanted tumors of human liver cancer Huh-7 in nude mice. The data set is classed as in vivo. The note with it: for % T/C D 17 / Mean tumor volume D 17 SEM / Tumor inhibition rate % D 17 / Mean tumor volume D 0 SEM: D 0, 3, 7, 10, 14; for Mean tumor volume D 0 SEM: baseline at grouping. The procedure: as §1, §2, §3, §4, §5
Nude mice were subcutaneously inoculated with 6×10^6 human liver cancer Huh-7 cells. After the tumor grew to 100-150 mm^3, the animals were grouped according to tumor volume (D0). Mice were administered subcutaneously (SC) or intravenously (IV), twice a week (BIW); the administration volume was 10 mL/kg; the solvent group was administered with the same volume of “solvent” (normal saline); specific dosage and administration regimen were shown in Table 2. The tumor volumes were measured twice a week, the mice were weighed, and the data were recorded.
as §6

Data set [3] concerns human breast cancer BT-474. The experiment in a line: subcutaneous transplanted tumors of human breast cancer BT-474 in nude mice. The data set is classed as in vivo. To be noted: for % T/C D 20 / Mean tumor volume D 20 SEM / Tumor inhibition rate % D 20 / Mean tumor volume D 0 SEM: D 0, 3, 7, 10, 14, 17; for Mean tumor volume D 0 SEM: baseline at grouping. The procedure:
as §1, §2, §3, §4, §5
Nude mice were subcutaneously inoculated with 1×10^7 human breast cancer BT-474 cells. After the tumor grew to 100-150 mm^3, the animals were grouped according to tumor volume (D0). Mice were administered subcutaneously (SC) or intravenously (IV), twice a week (BIW); the administration volume was 10 mL/kg; the solvent group was administered with the same volume of “solvent” (normal saline); specific dosage and administration regimen were shown in Table 3. The tumor volumes were measured twice a week, the mice were weighed, and the data were recorded.
as §6

The subject of data set [4] is MCF-7. The experiment in a line: SRB method, proliferation of tumor cells in vitro, MCF-7. The data set is classed as cell-based. The note with it: MCF-7 (Breast cancer), 120 hours of drug action. The procedure:
(§7) Sulfonyl rhodamine B protein staining method (SRB method) was used to evaluate the effects of using PEG-interferon alone or in combination with other drugs on the proliferation of tumor cells in vitro.
(§8) A certain number of cells in logarithmic growth phase were seeded in 96-well culture plates. After 24 hours of adherent growth, different concentrations (final concentrations of 1, 3, 10, 30, 100, 300, 1,000, 3,000, 10,000 nM) of drugs were added. After 120 hours of drug action, cells were fixed with trichloroacetic acid. Then stained with SRB solution; finally, Tris solution was added to dissolve SRB, and OD value was measured at a wavelength of 510 nm by a microplate reader.
In general terms: The SRB assay estimates cell density from bound dye.

Data set [5] has as its system BT474. The experiment in a line: SRB method, proliferation of tumor cells in vitro, BT474. The data set is classed as cell-based, human. The note with it: BT474 (Breast cancer), 120 hours of drug action. The procedure:
as §7, §8
Breast cancer cells BT474 were used, and the corresponding inhibition rate (%) was calculated.

Data set [6] deals with HCC1806. The data set can be described thus: SRB method, proliferation of tumor cells in vitro, HCC1806. The data set is classed as cell-based. The note with it: HCC1806 (Breast cancer), 120 hours of drug action. The procedure:
as §7, §8

Data set [7] has as its system NCI-H292. The experiment in a line: SRB method, proliferation of tumor cells in vitro, NCI-H292. The data set is classed as cell-based. The note with it: NCI-H292 (Lung cancer), 120 hours of drug action. The procedure:
as §7, §8

Data set [8] deals with A549. The data set can be described thus: SRB method, proliferation of tumor cells in vitro, A549. To be noted: A549 (Lung cancer), 120 hours of drug action. The data set is classed as cell-based. The procedure:
as §7, §8

The test system of data set [9] is HGC27. The experiment in a line: SRB method, proliferation of tumor cells in vitro, HGC27. The data set is classed as cell-based. The note with it: HGC27 (Gastric cancer), 120 hours of drug action. The procedure:
as §7, §8

Data set [10] concerns AGS. The data set can be described thus: SRB method, proliferation of tumor cells in vitro, AGS. The data set is classed as cell-based. The note with it: AGS (Gastric cancer), 120 hours of drug action. The procedure:
as §7, §8

Data set [11] deals with N87. The experiment in a line: SRB method, proliferation of tumor cells in vitro, N87. The data set is classed as cell-based, human. The note with it: N87 (Gastric cancer), 120 hours of drug action. The procedure:
as §7, §8

Data set [12] relates to HepG2. The data set can be described thus: SRB method, proliferation of tumor cells in vitro, HepG2. The note with it: HepG2 (Liver cancer), 120 hours of drug action. The data set is classed as cell-based. The procedure: as §7, §8
Data set [13] has as its system Hep3B. The data set can be described thus: SRB method, proliferation of tumor cells in vitro, Hep3B. The note with it: Hep3B (Liver cancer), 120 hours of drug action. The data set is classed as cell-based. The procedure:
as §7, §8

In data set [14] the test system is Huh-7. The data set can be described thus: SRB method, proliferation of tumor cells in vitro, Huh-7. The data set is classed as cell-based, human. To be noted: Huh-7 (Liver cancer), 120 hours of drug action. The procedure: as §7, §8
A short description of data set [15]: half-life in rats. The data set is classed as in vivo.
A short description of data set [16]: half-life in cynomolgus monkeys. The data set is classed as in vivo.
A short description of data set [17]: specific activity in vitro.
In data set [18] the test system is hairy cell leukemia. The note with it: hairy cell leukemia patients; cited from earlier work.
The subject of data set [19] is metastatic renal cancer and multiple myeloma. To be noted: high-dose (500 μg/day) injection, patients; cited from earlier work.
Where [20] appears, read: Avastin 10 mg/kg IV (first dose doubled).
Where [21] appears, read: PEGylated (PEG) interferon 0.1 mg/kg SC.
The mark [22] stands for this setting: PEGylated (PEG) interferon 1 mg/kg SC.
The mark [23] stands for this setting: PEGylated (PEG) interferon 10 mg/kg SC.
The mark [24] stands for this setting: PEGylated (PEG) interferon 10 mg/kg SC, 2 times a week, 6 times in total, D20.

With “Avastin: Bevacizumab injection, commercially available monoclonal antibody purchased from Roche Pharmaceuticals [reference compound]”, in data set [1] (setting [20]), the “% T/C D 21” value came to 51%, the “Mean tumor volume D 21 SEM” value turned out to be 561.1 ± 53.4 mm^3, the “Tumor inhibition rate % D 21” value is recorded as 49% and the “Mean tumor volume D 0 SEM” value is 115.7 ± 2.7 mm^3. In addition, in [2] (setting [20]), the “% T/C D 17” value is listed as 60%, the “Mean tumor volume D 17 SEM” value is listed as 1791.6 ± 105.7 mm^3, the “Tumor inhibition rate % D 17” value came out at 40% and the “Mean tumor volume D 0 SEM” value was 122.7 ± 1.8 mm^3.

B1: PEGylated (PEG) interferon: recombinant human interferon α1b modified with a single PEG of about 20,000 Daltons; lyophilized powder injection, Shanghai Institute of Biological Products (protein, UniProt P01562 24-189, looked up)
Interferon alpha-1/13: CDLPETHSLDNRRTLMLLAQMSRISPSSCLMDRHDFGFPQEEFDGNQFQKAPAISVLHELIQQIFNLFTTKDSSAAWDEDLLDKFCTELYQQLNDLEACVMQEERVGETPLMNADSILAVKKYFRRITLYLTEKKYSPCAWEVVRAEIMRSLSLSTNLQERLRRKE
modifications: single 20 kDa PEG
notes: recombinant human interferon α1b modified with a single PEG of about 20,000 Daltons; lyophilized powder injection, Shanghai Institute of Biological Products
The term half-life denotes the time in which the quantity being followed falls by half. A higher half-life goes with slow decline. Take B1: the “% T/C D 21” value in data set [1] (setting [21]) is 81%; in data set [1] (setting [22]), 68%; in data set [1] (setting [23]) it was 45%. The “Mean tumor volume D 21 SEM” value in data set [1] (setting [21]) turned out to be 817.1 ± 84.9 mm^3; in data set [1] (setting [22]), 712.4 ± 68.4 mm^3; in data set [1] (setting [23]), 506.1 ± 33.0 mm^3. In addition, the “Tumor inhibition rate % D 21” value is recorded as 19% in data set [1] (setting [21]), 32% in data set [1] (setting [22]) and 55% in [1] (setting [23]). Also, the “Mean tumor volume D 0 SEM” value in [1] (setting [21]) was 112.7 ± 3.9 mm^3; in data set [1] (setting [22]), 117.4 ± 2.8 mm^3; in data set [1] (setting [23]), 112.3 ± 2.3 mm^3; in [2] (setting [21]), 117.7 ± 2.0 mm^3; in [2] (setting [22]) it was 119.8 ± 2.6 mm^3; in [2] (setting [23]), 123.8 ± 1.9 mm^3. The “Mean tumor volume D 0 SEM” value in data set [3] (setting [21]) worked out at 91.2 ± 1.3 mm^3; in [3] (setting [22]), 94.1 ± 4.3 mm^3; in data set [3] (setting [23]) it was 94.8 ± 4.2 mm^3. Further, the “% T/C D 17” value is reported as 110% in data set [2] (setting [21]), 107% in data set [2] (setting [22]) and 91% in [2] (setting [23]). Also, the figures for the “Mean tumor volume D 17 SEM” value in data set [2] (setting [21]), in data set [2] (setting [22]) and in [2] (setting [23]) were 3188.0 ± 282.5 mm^3, 3110.6 ± 438.0 mm^3 and 2681.9 ± 435.7 mm^3, respectively. The “Tumor inhibition rate % D 17” value in data set [2] (setting [21]) is on record as −10%; in [2] (setting [22]) it was −7%; in data set [2] (setting [23]), 9%. In addition, in data set [2] (PEGylated (PEG) interferon 0.1, 1, 10 mg/kg, SC, 2 times a week, 5 times in total), the “inhibitory effect on the growth of subcutaneous transplanted tumors” value is recorded as “no significant inhibitory effect”. In addition, the “% T/C D 20” value in data set [3] (setting [21]) is reported as 34%; in [3] (setting [22]) it was 2%; in [3] (setting [23]) it was −56%. Further, the “Mean tumor volume D 20 SEM” value came to 422.2 ± 97.0 mm^3 in data set [3] (setting [21]), 115.7 ± 26.1 mm^3 in [3] (setting [22]) and 41.4 ± 15.7 mm^3 in data set [3] (setting [23]). Besides, the results for the “Tumor inhibition rate % D 20” value in [3] (setting [21]), in data set [3] (setting [22]) and in data set [3] (setting [23]) were 66%, 98% and 156%, respectively. Further, the “tumors regressed partially (PR)” value in data set [3] (PEGylated (PEG) interferon 1 mg/kg SC, 2 times a week, 6 times in total, D20) is on record as 3/6; in data set [3] (setting [24]) it was 4/6; in [3] (PEGylated (PEG) interferon 10 mg/kg SC, 6 times in total, end of the experiment (D60)) it was 4/6. The “tumors regressed completely (CR)” value in [3] (setting [24]) is 2/6. Also, the “Inhibition rate (%)@100 μg/mL” value in [4] is reported as 24.2%; in data set [5], 19.6%; in data set [6] it was 32.6%; in [7], 41.5%; in data set [8], 33.7%; in data set [9], 52.3%. The “Inhibition rate (%)@100 μg/mL” value amounted to 44.0% in data set [10]; 32.5% in data set [11]; 20.2% in data set [12]; 58.4% in [13]; 29.3% in [14]. Also, the half-life in data set [15] was found to be 13.98 h; in data set [16], 22.03 ± 3.32 h.

B2: ordinary interferon α1b: unmodified recombinant human interferon α1b, 166 amino acids, SEQ ID No.: 1 (protein, UniProt P01562 24-189, looked up)
Interferon alpha-1/13: B1 Interferon alpha-1/13
As to B2, the half-life in [15] stood at 1.84 h. The half-life in data set [16] was determined as 3.27 ± 1.48 h. In addition, the “specific activity relative to ordinary interferon α2a and 2b” value in data set [17] came to 10%. Besides, in data set [18], the adverse reaction entry is reported as “only a short-term low-grade fever”, the effective rate is 63.64% and the remission rate is 36.36%. For the same molecule, in [19], the “adverse reactions compared with other ordinary interferons” value was “milder” and the therapeutic effect result is listed as “certain therapeutic effect”.
